Assay results: doi:10.1101/2021.02.28.432901

Biological target: T1, SWELL1 (LRRC8a, Leucine-Rich Repeat Containing Protein 8a), Q80WG5
T1 chain: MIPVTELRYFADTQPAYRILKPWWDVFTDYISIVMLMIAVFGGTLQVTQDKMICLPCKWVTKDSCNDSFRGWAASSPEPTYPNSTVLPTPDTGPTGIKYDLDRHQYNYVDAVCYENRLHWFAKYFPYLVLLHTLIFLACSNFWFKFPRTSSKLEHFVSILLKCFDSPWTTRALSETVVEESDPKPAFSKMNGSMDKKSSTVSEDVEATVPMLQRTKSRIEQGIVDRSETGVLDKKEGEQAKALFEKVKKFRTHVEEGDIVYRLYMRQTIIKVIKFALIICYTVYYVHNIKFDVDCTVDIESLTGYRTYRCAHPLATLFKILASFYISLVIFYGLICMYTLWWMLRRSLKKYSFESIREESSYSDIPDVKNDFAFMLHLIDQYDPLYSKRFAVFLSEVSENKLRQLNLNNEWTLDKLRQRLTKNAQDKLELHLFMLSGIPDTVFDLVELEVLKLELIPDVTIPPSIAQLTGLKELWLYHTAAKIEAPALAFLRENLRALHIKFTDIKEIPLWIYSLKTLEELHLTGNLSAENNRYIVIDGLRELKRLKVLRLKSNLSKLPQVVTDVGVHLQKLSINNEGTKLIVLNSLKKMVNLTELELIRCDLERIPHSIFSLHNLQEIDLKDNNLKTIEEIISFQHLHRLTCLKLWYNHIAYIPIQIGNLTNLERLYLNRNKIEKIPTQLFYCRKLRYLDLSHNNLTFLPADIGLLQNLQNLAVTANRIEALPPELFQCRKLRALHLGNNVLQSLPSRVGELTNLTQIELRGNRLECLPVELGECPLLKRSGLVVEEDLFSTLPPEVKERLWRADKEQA
Experiment: cryo-EM structure
Conditions: remark: other sources report otherwise

B1: SWELL1 (LRRC8a, Leucine-Rich Repeat Containing Protein 8a), Q80WG5 1-810 (natural protein)
chain: MIPVTELRYFADTQPAYRILKPWWDVFTDYISIVMLMIAVFGGTLQVTQDKMICLPCKWVTKDSCNDSFRGWAASSPEPTYPNSTVLPTPDTGPTGIKYDLDRHQYNYVDAVCYENRLHWFAKYFPYLVLLHTLIFLACSNFWFKFPRTSSKLEHFVSILLKCFDSPWTTRALSETVVEESDPKPAFSKMNGSMDKKSSTVSEDVEATVPMLQRTKSRIEQGIVDRSETGVLDKKEGEQAKALFEKVKKFRTHVEEGDIVYRLYMRQTIIKVIKFALIICYTVYYVHNIKFDVDCTVDIESLTGYRTYRCAHPLATLFKILASFYISLVIFYGLICMYTLWWMLRRSLKKYSFESIREESSYSDIPDVKNDFAFMLHLIDQYDPLYSKRFAVFLSEVSENKLRQLNLNNEWTLDKLRQRLTKNAQDKLELHLFMLSGIPDTVFDLVELEVLKLELIPDVTIPPSIAQLTGLKELWLYHTAAKIEAPALAFLRENLRALHIKFTDIKEIPLWIYSLKTLEELHLTGNLSAENNRYIVIDGLRELKRLKVLRLKSNLSKLPQVVTDVGVHLQKLSINNEGTKLIVLNSLKKMVNLTELELIRCDLERIPHSIFSLHNLQEIDLKDNNLKTIEEIISFQHLHRLTCLKLWYNHIAYIPIQIGNLTNLERLYLNRNKIEKIPTQLFYCRKLRYLDLSHNNLTFLPADIGLLQNLQNLAVTANRIEALPPELFQCRKLRALHLGNNVLQSLPSRVGELTNLTQIELRGNRLECLPVELGECPLLKRSGLVVEEDLFSTLPPEVKERLWRADKEQA
B1 was tested, and the stoichiometry N was 6.
